In US20160237156A1 (CALIFORNIA INSTITUTE FOR BIOMEDICAL RESEARCH, published 2016):

T1: Human neutrophil elastase (Elastin Products Company, Inc.) (human, UniProt P08246 30-247, limits assumed)
T1 sequence (looked up): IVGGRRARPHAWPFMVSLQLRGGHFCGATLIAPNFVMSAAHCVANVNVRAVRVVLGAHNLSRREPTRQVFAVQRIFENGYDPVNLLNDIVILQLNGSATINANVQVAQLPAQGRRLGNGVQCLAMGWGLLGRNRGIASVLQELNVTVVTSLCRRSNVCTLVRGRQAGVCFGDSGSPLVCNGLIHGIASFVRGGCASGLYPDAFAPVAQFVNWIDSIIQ


Tests used:
CXCR4 = CXCR4 (human, UniProt P61073 1-352); test: cell-based or functional assay
Sequence of CXCR4 (P61073 whole entry): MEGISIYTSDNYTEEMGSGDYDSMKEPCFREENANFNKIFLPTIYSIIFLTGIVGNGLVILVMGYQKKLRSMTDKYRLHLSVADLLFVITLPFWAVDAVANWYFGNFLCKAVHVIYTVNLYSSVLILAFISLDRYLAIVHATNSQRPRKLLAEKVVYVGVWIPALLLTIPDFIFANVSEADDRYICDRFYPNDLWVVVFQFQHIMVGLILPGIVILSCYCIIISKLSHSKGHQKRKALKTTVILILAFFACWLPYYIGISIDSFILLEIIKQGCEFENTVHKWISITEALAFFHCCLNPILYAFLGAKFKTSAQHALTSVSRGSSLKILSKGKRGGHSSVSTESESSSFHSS

[1] = target: T2, SNAP-tag-CXCR4 (Tag-lite labeled CXCR4 cells, Cisbio Bioassays) (UniProt P61073 1-352, Tag-lite label on the SNAP-tag); test: Tag-lite HTRF competition with 50 nM fluorescent SDF-1, Cheng-Prusoff
T2 construct: whole, on cells; Bought labelled cells; also called Tag-lite CXCR4 receptor; labeled SNAP-tag-CXCR4; not shown: SNAP-tag of the bought Tag-lite cells
T2 sequence (P61073 whole entry): as above
Method: (§1) Briefly, 10⁶ Tag-lite labeled CXCR4 cells were thawed at 37° C., centrifuged for 5 min at 1200 g, and re-suspended in 2.7 ml 1×Tag-lite buffer after removal of supernatant.

[2] = target: T2, SNAP-tag-CXCR4 (Tag-lite labeled CXCR4 …); test: Tag-lite HTRF competition with 50 nM fluorescent SDF-1 on Tag-lite labeled CXCR4 cells
Method: as §1

[3] = target: T1, Human neutrophil elastase (Elastin …); test: elastase inhibition assay with fluorogenic substrate MeOSuc-AAPV-AMC (Example 28); y axis read as residual activity

inhibition of SDF-1 induced migration of Ramos cells, EC50 (CXCR4)	Ki [1]	IC50 [2]	binding result [3]	IC50 (read off the curve) [3]	Binder
	25.1 nM	113 nM			trastuzumab-beta BCCX2 HC medium (antibody, human IgG1, kappa, V domains shown, also called HMCX) VH: EVQLVESGGGLVQPGGSLRLSCAASGFNIKDTYIHWVRQAPGKGLEWVARIYPTNGYTRYADSVKGRFTISADTSKNTAYLQMNSLRAEDTAVYYCSRETKKYRKCRGGRRWCYQKYNYEDYWGQGTLVTVSS VL: not shown
			binds		Human BVK-beta HEI HC 6 (Fab, V domains shown, also called HEI fusion protein) VH: QVQLQESGPGLVRPSQTLSLTCTVSGFSLTGYGVNWVRQPPGRGLEWIGMIWGDGNTDYNSALKSRVTMLKDTSKNQFSLRLSSVTAADTAVYYCTSVHQEMCTASIPPQCYEWHVDVWGQGLLVTVSS VL: DIQMTQSPSSLSASVGDRVTITCRASGNIHNYLAWYQQKPGKAPKLLIYYTTTLADGVPSRFSGSGSGTDYTFTISSLQPEDIATYYCQHFWSTPRTFGQGTKVEIKR
			binds		Human BVK-beta HEI HC 8 (Fab, V domains shown, also called HEI fusion protein) VH: QVQLQESGPGLVRPSQTLSLTCTVSGFSLTGYGVNWVRQPPGRGLEWIGMIWGDGNTDYNSALKSRVTMLKDTSKNQFSLRLSSVTAADTAVYYCTSVHQETKMCTASIPPQCYNYEWHVDVWGQGLLVTVSS VL: DIQMTQSPSSLSASVGDRVTITCRASGNIHNYLAWYQQKPGKAPKLLIYYTTTLADGVPSRFSGSGSGTDYTFTISSLQPEDIATYYCQHFWSTPRTFGQGTKVEIKR
	2.07 nM	9.36 nM			trastuzumab-beta BCCX2 HC long (antibody, human IgG1, kappa, V domains shown, also called HLCX) VH: EVQLVESGGGLVQPGGSLRLSCAASGFNIKDTYIHWVRQAPGKGLEWVARIYPTNGYTRYADSVKGRFTISADTSKNTAYLQMNSLRAEDTAVYYCSRETKKYQSYRKCRGGRRWCYQKSYTYNYEDYWGQGTLVTVSS VL: not shown

The next lines start with the binder.

Binder	inhibition of SDF-1 induced migration of Ramos cells, EC50 (CXCR4)	Ki [1]	IC50 [2]	binding result [3]	IC50 (read off the curve) [3]
BLV1H12-beta BCCX2 HC 4 IgG (antibody, V domains shown, Peptide grafted into CDRH2; also called bAb-AC4; BVL1H12-beta BCCX2 HC 4) VH: ASGFSLSDKAVGWVRQAPGKALEWLGSIDETKKYQSYRKCRGGRRWCYQKSYTYNYETGYNPGLKSRLSITKDNSKSQVSLSVSSVTTEDSATYYCTSVHQGGGGSWHVDVWGQGLLVTVSS VL: QAVLNQPSSVSGSLGQRVSITCSGSSSNVGNGYVSWYQLIPGSAPRTLIYGDTSRASGVPDRFSGSRSGNTATLTISSLQAEDEADYFCASAEDSSSNAVFGSGTTLTVLG	3.2 nM	0.92 nM	4.16 nM		
BLV1H12-beta BCCX2 HC 2 IgG (antibody, V domains shown, Bovine-human chimera with human IgG1 Fc; also called bAb-AC2) VH: QVQLRESGPSLVKPSQTLSLTCTASGFSLSDKAVGWVRQAPGKALEWLGSIDTGGNTGYNPGLKSRLSITKDNSKSQVSLSVSSVTTEDSATYYCTSVHQETKKYQSYRKCRGPRRWCYQKSYTYNYEWHVDVWGQGLLVTVSS VL: QAVLNQPSSVSGSLGQRVSITCSGSSSNVGNGYVSWYQLIPGSAPRTLIYGDTSRASGVPDRFSGSRSGNTATLTISSLQAEDEADYFCASAEDSSSNAVFGSGTTLTVLG		5.39 nM	24.4 nM		
BLV1H12-beta BCCX2 HC 3 IgG (antibody, V domains shown, Bovine-human chimera with human IgG1 Fc; also called bAb-AC3) VH: QVQLRESGPSLVKPSQTLSLTCTASGFSLSDKAVGWVRQAPGKALEWLGSIDTGGNTGYNPGLKSRLSITKDNSKSQVSLSVSSVTTEDSATYYCTSVHQETKKYQSYRKCRGGNGRRWCYQKSYTYNYEWHVDVWGQGLLVTVSS VL: QAVLNQPSSVSGSLGQRVSITCSGSSSNVGNGYVSWYQLIPGSAPRTLIYGDTSRASGVPDRFSGSRSGNTATLTISSLQAEDEADYFCASAEDSSSNAVFGSGTTLTVLG		19.8 nM	89.3 nM		
Human BVK-beta HEI HC 9 (Fab, V domains shown, also called HEI fusion protein) VH: QVQLQESGPGLVRPSQTLSLTCTVSGFSLTGYGVNWVRQPPGRGLEWIGMIWGDGNTDYNSALKSRVTMLKDTSKNQFSLRLSSVTAADTAVYYCTSVHQETKKMCTASIPPQCYYNYEWHVDVWGQGLLVTVSS VL: DIQMTQSPSSLSASVGDRVTITCRASGNIHNYLAWYQQKPGKAPKLLIYYTTTLADGVPSRFSGSGSGTDYTFTISSLQPEDIATYYCQHFWSTPRTFGQGTKVEIKR					~40 nM
